Literature values, collected in PMC2846785.

Test system: Cys

Arylamine N-acetyltransferase 2 (hamster NAT2) (Mesocricetus auratus (Syrian hamster))
pKa: 5.23 ± 0.03
